The Human Domainome abundance scans (Beltran et al. 2025)
± gives the uncertainty stated by the source.

B1: Glucocorticoid receptor, residues 419 to 494; numbered along this chain, P04150 (parent)
chain: KLCLVCSDEASGCHYGVLTCGSCKVFFKRAVEGQHNYLCAGRNDCIIDKIRRKNCPACRYRKCLQAGMNLEARKTK

Variants of: B1
Test: abundance fitness (aPCA) (normalised: wild type 0, dead -1); higher = more abundant; growth selection in yeast, the domain comes from the species named
Settings: Homo sapiens

In order of falling abundance fitness:
1. KLCLVCSDEASGHHYGVLTCGSCKVFFKRAVEGQHNYLCAGRNDCIIDKIRRKNCPACRYRKCLQAGMNLEARKTK [C13H]  0.112 ± 0.061
2. KLCLVCSDEASGCHYGVLTCGSCKVFFKRAVEGQHNYLCAGRNDCIIDKIRRKNCPACRYRKCLQAGMNLEARETK [K74E]  0.091 ± 0.053
3. KLCLVCSDEASGCHYGVLTCGSCKVFFKRAVEGQHNYLCAGRNDCIIDKIRRKNCPACRYRKCLQAGMSLEARKTK [N69S]  0.039 ± 0.044
4. KQCLVCSDEASGCHYGVLTCGSCKVFFKRAVEGQHNYLCAGRNDCIIDKIRRKNCPACRYRKCLQAGMNLEARKTK [L2Q]  0.029 ± 0.062
5. KLCLVCSDEASGCHYGVLTCGSCYVFFKRAVEGQHNYLCAGRNDCIIDKIRRKNCPACRYRKCLQAGMNLEARKTK [K24Y]  0.017 ± 0.06
6. KLCLVCSDEASGCHYGVLTCGSCKVFFKRAVEGQHNMLCAGRNDCIIDKIRRKNCPACRYRKCLQAGMNLEARKTK [Y37M]  0.013 ± 0.062
7. KLCLVCSDEASGCHYGVLTCGSCKGFFKRAVEGQHNYLCAGRNDCIIDKIRRKNCPACRYRKCLQAGMNLEARKTK [V25G]  0.008 ± 0.054
8. KLCLVCSDEASGCHYGVLTCGSCKVFFKRAVEGQHNYLCAGRNDCIIDKIRRKNCFACRYRKCLQAGMNLEARKTK [P56F]  -0.003 ± 0.06
9. KLCLVCSDEASGCHYGVLTCGSCDVFFKRAVEGQHNYLCAGRNDCIIDKIRRKNCPACRYRKCLQAGMNLEARKTK [K24D]  -0.006 ± 0.087
10. KLCLVCSDEASGCHYGVLTCGSCKVFFKRAVEGQRNYLCAGRNDCIIDKIRRKNCPACRYRKCLQAGMNLEARKTK [H35R]  -0.044 ± 0.033
11. KLCLVCSDEASGCHYGVLTCGSCKVFFKRAVESQHNYLCAGRNDCIIDKIRRKNCPACRYRKCLQAGMNLEARKTK [G33S]  -0.045 ± 0.04
12. KLCLVCSDEASGCHYGVLTCGSCKVFFKRAVEGQHNYLCAGRNDCIIDKIRRKNCMACRYRKCLQAGMNLEARKTK [P56M]  -0.053 ± 0.041
13. KLCLVCSDEASGCHYGVLTCGSCKVFFKRAVEGQHNYGCAGRNDCIIDKIRRKNCPACRYRKCLQAGMNLEARKTK [L38G]  -0.059 ± 0.029
14. KLCLVCSDEASGCHYGVLTCGSCKVFFKRAVEGQHNYLCAGRNDCIIDKIRRKNCVACRYRKCLQAGMNLEARKTK [P56V]  -0.064 ± 0.032
15. KLCLVCSDEASGCHYGVLTCGSCKVFFKRAVEGQINYLCAGRNDCIIDKIRRKNCPACRYRKCLQAGMNLEARKTK [H35I]  -0.071 ± 0.072
16. KLCLVCSDEASGCHYGVLTCGSCKVFFKRAVEGQHNYLCAGRNDCIIDKIRRKNCPACRYRKCLQAGMNLFARKTK [E71F]  -0.072 ± 0.059
17. KLCLVCSDEASGCHYGVLTCGSCKVFFKRAVEGVHNYLCAGRNDCIIDKIRRKNCPACRYRKCLQAGMNLEARKTK [Q34V]  -0.073 ± 0.039
18. KLCLVCSDEASGCHYGVLTCGSCKVFFKRAVEGQHNYLCAGRNDCIIDKIRRKNCPACRYRKCLQAGFNLEARKTK [M68F]  -0.076 ± 0.065
19. KLCLVCSDEASGCHYGVLTCGSCKVFFKCAVEGQHNYLCAGRNDCIIDKIRRKNCPACRYRKCLQAGMNLEARKTK [R29C]  -0.077 ± 0.07
20. KLCLVCSDEASGCHYGVLTCGSCKVFFKRAVEGQHNYLCAGRNDCIIDYIRRKNCPACRYRKCLQAGMNLEARKTK [K49Y]  -0.077 ± 0.093
21. KLCLVCSDEASGCHYGVLTCGSCMVFFKRAVEGQHNYLCAGRNDCIIDKIRRKNCPACRYRKCLQAGMNLEARKTK [K24M]  -0.087 ± 0.077
22. KLCLVCSDEASGCHYGVLTCGSCKVFFKRAVEGQHNYLCAGRNDCIIDKIRWKNCPACRYRKCLQAGMNLEARKTK [R52W]  -0.112 ± 0.04
23. KLCLVCWDEASGCHYGVLTCGSCKVFFKRAVEGQHNYLCAGRNDCIIDKIRRKNCPACRYRKCLQAGMNLEARKTK [S7W]  -0.115 ± 0.043
24. KLCLVCSDEASGCHYGVLTCGSCKVFFKRAVEGQHNKLCAGRNDCIIDKIRRKNCPACRYRKCLQAGMNLEARKTK [Y37K]  -0.122 ± 0.061
25. KLCLVCSDEASGCHYGVLTCGSCKVFFKRAVEGQHNYLCAGRNDCIIDKIRRKNCPACRYRKCLQAGMNLEADKTK [R73D]  -0.125 ± 0.076
26. KLCLVCSDEASGCHYGVLTCGSCKVFFKRAVEGQHNYLCAGRNDCIIDKIRRKNCPACRYFKCLQAGMNLEARKTK [R61F]  -0.13 ± 0.08
27. KLCLVCSDEASGCHYGVLTCGSCKVFFKRAVEGYHNYLCAGRNDCIIDKIRRKNCPACRYRKCLQAGMNLEARKTK [Q34Y]  -0.136 ± 0.095
28. KLCLVCSDEASGCHYGVLTCGSCKVFFKRAVEGQHNYLCAGRNDCIIDKIRRKNCPACRYRKCLQWGMNLEARKTK [A66W]  -0.227 ± 0.05
29. KLCLVCSDEASGCHYGVLTCGSCKVFFKRAVEGFHNYLCAGRNDCIIDKIRRKNCPACRYRKCLQAGMNLEARKTK [Q34F]  -0.256 ± 0.12
30. KLCLVCSDEASGCHYGVLTCGSCKVFFKRAVEGQHNYLCAGRNDCIIDKIRRKNCPNCRYRKCLQAGMNLEARKTK [A57N]  -0.266 ± 0.085
31. KLCLVCSDEASGCHYHVLTCGSCKVFFKRAVEGQHNYLCAGRNDCIIDKIRRKNCPACRYRKCLQAGMNLEARKTK [G16H]  -0.291 ± 0.072
32. KLCLVCSDEASGCHYGVLTCGSCKVFFKRAVEGQHNYLCAGRNDCIIDKIRRKNCPACRYRKCLQAVMNLEARKTK [G67V]  -0.583 ± 0.076
33. KLCLVCSDEASGCHYGVLTCGSCKVFFKRAVEGQHNYLQAGRNDCIIDKIRRKNCPACRYRKCLQAGMNLEARKTK [C39Q]  -0.586 ± 0.11
34. KLCLVCSDEASGCHYGVLTCGSCKVFFKRAVEGQHNYLNAGRNDCIIDKIRRKNCPACRYRKCLQAGMNLEARKTK [C39N]  -0.603 ± 0.2
35. KLCLVCSDEASGCHYGVLTCGSCKVDFKRAVEGQHNYLCAGRNDCIIDKIRRKNCPACRYRKCLQAGMNLEARKTK [F26D]  -1.01 ± 0.26
36. KLCLVCSDEASGCHYGVLTCGSCKVFFKRAVEGQHNYLCAGRNDCIIDKIRRKNCPARRYRKCLQAGMNLEARKTK [C58R]  -1.04 ± 0.12
